Experiment: soluble on expression in E. coli; label from the status in PepcDB or PDB records

| Sequence | soluble on expression in E. coli |
| --- | --- |
| LTVSARDAPTKISTLAVKVHGGSRYATKDGVAHLLNRFNFQNTNTRSALKLVRESELLGGTFKSTLDREYITLKATFLKDDLPYYVNALADVLYKTAFKPHELTESVLPAARYDYAVAEQCPVKSAEDQLYAITFRKGLGNPLLYDGVERVSLQDIKDFADKVYTKENLEVSGENVVEADLKRFVDESLLSTLPAGKSLVSKSEPKFFLGEENRVRFIGDSVAAIGIPVNKASLAQYEVLANYLTSALSELSGLISSAKLDKFTDGGLFTLFVRDQDSAVVSSNIKKIVADLKKGKDLSPAINYTKLKNAVQNESVSSPIELNFDAVKDFKLGKFNYVAVGDVSNLPYLDEL | soluble |
| MSLDNGIELPGVSFWGGNILQDTDGKYHLFVCGWPEDSPKGHMFWSNSTVFHAVSDRLEGPFKIQNSVGKGHNPEAFQLKDGRVVVYVIDGYYIADGVDSKVWTYGKFSFDSRDRKIIEGLSNLTFARRQDDSYLMVCRGGGVWISKDGLSPYMQLTDKRVYPDVEGRFEDPVVWRDELQYHLIVNDWLGRIAFYQRSKDGVHWVTEQGEAYVPGVSFHKDGAVEHWFKYERPKVFQDEKGRAVQMNFAVIDTIKWNDLPNEGHHHHHH | not soluble |
| MMGCMMIYNPKQLANHLKLIRTKHNLTQTELAKKVGVKQSTLSSFENHPETTQLQTLFKILHALEVHCIIQEQVPASHEDNLDDEAW | not soluble |
| MSLLEKDINLKIFKGNLIFTKTSDKFTIMKDSYIVVIDGKIASVSSNLPDKYKGNPIIDFRNNIIIPGMNDLHAHASQYKNLGIGMDKELLPWLNNYTFPEEAKFLNVDYAKKTYGRLIKDLIKNGTTRVALFATLHKDSTIELFNMLIKSGIGAYVGKVNMDYNCPDYLTENYITSLNDTEEIILKYKDKSNIVKPIITPRFVPSCSNELMDGLGKLSYKYRLPVQSHLSENLDEIAVVKSLHKKSNFYGEVYDKFGLFGNTPTLMAHCIHSSKEEINLIKRNNVTIVHCPTSNFNLGSGMMPVRKYLNLGINVVLGSDISAGHTCSLFKVIAYAIQNSKIKWQESGKKDMFLSTSEAFYMATKKGGSFFGKVGSFEEGYDFDALVINDSNLYPEDYDLTERLERFIYLGDDRNIMKRYVCGNEIFGPKFEGHHHHHH | soluble |
| SDKLNKITVPASQKLRQLQKMVHDIKNNEGGIMNKIKKLKVKAPPSVPRRDYASESPADEEQQWSDDFDSDYENPDEHSDSEMYVMPAEENADDSYEPPPVEQETRPVHPALPFARGEYIDNRSSQRHSPPFSKTLPSKPSWPSEKARLTSTLPALTALQKPQVPPKPKGLLEDEADYVVPVEDNDENYIHPTESSSPPPEKAPMVNRSTKPNSSTPASPPGTASGRNSGAWETKSPPPAAPSPLPRAGKKPTTPLKTTPVASQQNASSVCEEKPIPAERHRGSSHRQEAVQSPVFPPAQKQIHQKPIPLPRFTEGGNPTVDGPLPSFSSNSTISEQEAGVLCKPWYAGACDRKSAEEALHRSNKDGSFLIRKSSGHDSKQPYTLVVFFNKRVYNIPVRFIEATKQYALGRKKNGEEYFGSVAEIIRNHQHSPLVLIDSQNNTKDSTRLKYAVKVS | soluble |
| MMTLPYPYSSSARFYALRLLPGQEVFSQLHAFAQQQQLHAAWIAGCTGSLTDIALRYAGQEGTTLLNGTFEVISLNGTLEQSGEHLHLCVSDPHGTMLGGHMMPGCTVRTTLELVIGSLEELAFSRQPCALSGYDELHISPVK | not soluble |
| MAHHHHHHMTESRWITEALVQFSASPIWLTPIDNFVDDNCCIFSNESEMQLEYTVAHNKFKKLIDSLLTCFLMELGVSMETAVEALQSSLAVSVQTSEGLSEQQAAKKLLKQIFNADNFSHFHTMMVKRNLELDILANAALSSDGVCGNGGAALSTEEVEKETRARARVQRAIDVNGDVSEDDALRRAIEVSLQDGTAQQQVQAYRKACIQEDANLQLTAVEHQANSEKAQLEAVLQTQSAQNLPEGEHFRQNHVEPINKQKESQLQPIRAHAMSGKGQKGCDEAEPQKANFNSPESPCPLPALQVPAAASAPVAAPVSVPALPSIGQRQAALPSIPSTITASVLKSAPSAPAHQAHGTAVSATPAPTPIPTKEELEKRAQYMREQREKLLARNRASRQEQLNTFLQNNSSSTTTSSSAALAATGAAQSVTVEIARRLRGDLIGEARKSSG | soluble |
| MPKNTPIIRSLLDTDLYKFTMLQVVLHQFPAAHGEYEFRCRNHPDTPLTQLKQQLETQLDLLCELRFSQDELDYLRGLRFIKSDYVDYLELFHLQRRFISVSEEGEQLAIRIKGPMVQAMFFEIFVLAIVNELYFRPLDSKAVREEGRRRLEAKLAELERFQREEAPGQRFPLLIADFGTRRRFSRDWQAHVVERLNHALPQVFRGTSNVYLARKLGITPIGTMAHEFFQAFQALGVRLRDFQKAALESWVQEYRGDLGIALTDVVGMDAFLADFDLYFAKLFDGLRHDSGDPYIWGEKAIAHYRKLRIDPATKMLTFSDGLSVDSALQLQRHFSPHIQVSFGIGTHFTNDMGLEPLQIVLKLVSCNGQPVAKLSDSPGKTMCSDETFLAYLRQVFKVPALALEHHHHHH | soluble |
| PNILRGLLLGYSEKMVELEHKVEVMQPTIDAFDRIATANGSLCLTDAAKALQMRPKDFISFLSQKQWIYKRTGSAHYVGYQDKVQAGFLEHKVTEVTRGDGSNKITEQVRVTPKGLTRLSKLLGNNHV | not soluble |
| MERLDFSSIIRKDREEHKSKKFEGTFLEYLEIVKENPEITMLAHQRMYKLITEPGVTVIRTEENPRLRRIYGNDIIKKYKFFEDEFFGIDKTIMKIVRYFHSAAMAGEEARQVLYLVGPVGAGKSSLMEALKRALEMSPPIYALKGCPMREEPLHLVPKHLRKEFEEILNVRIEGDLCPICRYRLKNEYNGEYERFPVETVDFSIRSRKGIGVVPPVDPNNQDTSVLIGSVDISKIDLYPEDDPRVLSLNGAFNVGNRGIVEFIEVFKNETEYLHTMITATQEKSIPSPGKGSMIYFDGIILAHSNEAEWNKFKSDHTNEAILDRIVKIEVPYCLELNEEIKIYEKILRKSKFDAHIAPHTIEIAAMFAILTRLAPSNKVDPMTKLKIYNGEEIIEKGMTKKVDIFELKEEAPREGMTGISTRFIMKVLDTTLSESEHNCINPISVMETLVKSIKELSISEEERERYLRFVQDSIRKEYNKILEREITKAFIHGYKEQAESLFNNYLDHAEAFVNKSKIKDRNTGEELEPDEKFLRSIEEQIGITDTAAKGFRADVTAYMFYVLRNGGKLDYTSYEPLKEAIEKKLTSSVRELSRVITQAKVRDKEQSEKYDTMVQEMKNNGYCDHCCNVILKYAANNLWKD | soluble |
| MKMNVESFNLDHTKVKAPYVRIADRKKGVNGDLIVKYDVRFKQPNRDHMDMPSLHSLEHLVAEIIRNHANYVVDWSPMGCQTGFYLTVLNHDNYTEILEVLEKTMQDVLKAKEVPASNEKQCGWAANHTLEGAQNLARAFLDKRAEWSEVGVGSHHHHHH | soluble |
| QGKTTVTAALARLHARQGRRVRVFKCGPDFLDPMILARASGAPVYQLDLWMVGEAEARRLLARAAGEADLILIEGVMGLFDGNPSAADLARRFGVPVLGVINGAAMAQTFGALAYGLAHFQPDLPFSGVLGNRVGSQRHSDILRDCLPPGMRWFGGLPRSAEFELPSRHLGLVQAEELADLDARLDAAADALRASAETDLPEPVTFEVPAPAPLQRSLEGVRIGVARDASFAFLYQANLDLLRELGAELAFFSPLQDQALPAVDSLYLPGGYPELHLGRLQGNRAMAEAIRAHHAAGKPLLAECGGMLYLLDCLEDADGERGELLGLLPGRARLQKRLTALALQEVELPEGRLRGHTFHHSTLDCAVEPLARGVCPNGRNTAEAVFRLGRLTASYIHFYLPSNPQAAAALLAPARDA | not soluble |
| MSLKINRIVNEGFMKTMLAAYLLGNSTVDLREVAVPTPGINQVLIKMKSSGICGSDVHYIYHQHRATAAAPDKPLYQGFINGHEPCGQIVAMGQGCRHFKEGDRVLVYHISGCGFCPNCRRGFPISCTGKGKAAYGWQRDGGHAEYLLAEEKDLILLPDALSYEDGAFISCGVGTAYEGILRGEVSGSDNVLVVGLGPVGMMAMMLAKGRGAKRIIGVDMLPERLAMAKQLGGMDHGYLATTEGLPQIIAELTHGGADVALDCSGNAAGRLLALQSTADWGRVVYIGETGKVEFEVSADLMHHQRRIIGSWVTSLFHMEKCAHDLTDWKLWPRNAITHRFSLEQAGDAYVLMASGKCGKVVINFPDEGHHHHHH | not soluble |

— the DeepSol protein solubility set
